Measurements from patent US20140004106A1.

How the values were obtained:
[1] = target: 28mer peptide of the CXCR5 antigen; experiment: Antigen-ELISA; standard run with LA 09_004_9
[2] = target: 28mer peptide of the CXCR5 antigen; experiment: Antigen-ELISA; Citrate 10 mM pH 7.00, after mechanical stress 350 rpm 2.5 h
[3] = target: 28mer peptide of the CXCR5 antigen; experiment: Ag-ELISA; DS in PBS, 25°C, 3 months
[4] = target: 28mer peptide of the CXCR5 antigen; experiment: Antigen-ELISA; PBS 155 mM pH 7.50, T0
[5] = target: 28mer peptide of the CXCR5 antigen; experiment: Ag-ELISA; DS in PBS, -20°C, 3 months
[6] = target: 28mer peptide of the CXCR5 antigen; experiment: Antigen-ELISA; standard run with LA_09_004_3
[7] = target: 28mer peptide of the CXCR5 antigen; experiment: Antigen-ELISA; Citrate 10 mM pH 6.50, after 1 week at +40°C
[8] = target: 28mer peptide of the CXCR5 antigen; experiment: Antigen-ELISA; Citrate 10 mM pH 6.00, after mechanical stress 350 rpm 2.5 h
[9] = target: 28mer peptide of the CXCR5 antigen; experiment: Antigen-ELISA; citrate 10 mM prototype B, T0
[10] = target: 28mer peptide of the CXCR5 antigen; experiment: ELISA potency (binding); 100 mg/mL, Glycine (20) + Mannitol (15), T zero
[11] = target: 28mer peptide of the CXCR5 antigen; experiment: Antigen-ELISA; Saline 150 mM pH 6.00, T0
[12] = target: 28mer peptide of the CXCR5 antigen; experiment: Antigen-ELISA; PB 5 mM pH 7.00, after 1 week at +40°C
[13] = target: 28mer peptide of the CXCR5 antigen; experiment: Antigen-ELISA; Glycine 10 mM pH 7, T0
[14] = target: 28mer peptide of the CXCR5 antigen; experiment: Antigen-ELISA; histidine 10 mM prototype D, T0
[15] = target: 28mer peptide of the CXCR5 antigen; experiment: Antigen-ELISA; acetate 10 mM prototype A, T0
[16] = target: 28mer peptide of the CXCR5 antigen; experiment: Antigen-ELISA; PBS 155 mM pH 7.00, after 1 week at +40°C
[17] = target: 28mer peptide of the CXCR5 antigen; experiment: Antigen-ELISA; Citrate 10 mM pH 7.00, T0
[18] = target: 28mer peptide of the CXCR5 antigen; experiment: Antigen-ELISA; Citrate 10 mM pH 5.00, after 1 week at +40°C
[19] = target: 28mer peptide of the CXCR5 antigen; experiment: Antigen-ELISA; standard run with LA_09_27D, T0
[20] = target: 28mer peptide of the CXCR5 antigen; experiment: ELISA potency (binding); 100 mg/mL, Trehalose (60) + NaCl (2), 7 days at 40°C
[21] = target: 28mer peptide of the CXCR5 antigen; experiment: Antigen-ELISA; PB 5 mM pH 7.00, T0
[22] = target: 28mer peptide of the CXCR5 antigen; experiment: Antigen-ELISA; PB 10 mM pH 7.50, T0
[23] = target: 28mer peptide of the CXCR5 antigen; experiment: Antigen-ELISA; acetate 10 mM prototype B, T0
[24] = target: 28mer peptide of the CXCR5 antigen; experiment: Antigen-ELISA; Succinate 10 mM pH 5.00, after 1 week at +40°C
[25] = target: 28mer peptide of the CXCR5 antigen; experiment: ELISA potency (binding); 100 mg/mL, Glycine (20), T zero
[26] = target: 28mer peptide of the CXCR5 antigen; experiment: Antigen-ELISA; Histidine 10 mM pH 5.5, T0
[27] = target: 28mer peptide of the CXCR5 antigen; experiment: Antigen-ELISA; PB 5 mM pH 7.00, after mechanical stress 350 rpm 2.5 h

EC50 % [1]: 100% | EC50 % [2]: 101% | EC50 % [3]: 108% | EC50 % [4]: 81% | EC50 % [5]: 93% | EC50 % [6]: 100% | EC50 % [7]: 46% | EC50 % [8]: 136% | EC50 % [9]: 104% | rel. potency [%] [10]: 111% | EC50 % [11]: 96.2% | EC50 % [12]: 68% | EC50 % [13]: 127% | EC50 % [14]: 169% | EC50 % [15]: 112% | EC50 % [16]: 97% | EC50 % [17]: 59.9% | EC50 % [18]: 75% | EC50 % [19]: 100% | rel. potency [%] [20]: 191% | EC50 % [21]: 68% | EC50 % [22]: 117% | EC50 % [23]: 112% | EC50 % [24]: 157% | rel. potency [%] [25]: 170% | EC50 % [26]: 57% | EC50 % [27]: 110%
B1: Lead CXCR5 Antibody (humanized IgG4 anti-CXCR5 antibody) (antibody, V domains shown)
VH: QVQLKESGPGLVAPSESLSITCTVSGFSLIDYGVNWIRQPPGKGLEWLGVIWGDGTTYYNPSLKSRLSISKDNSKSQVFLKVTSLTTDDTAMYYCARIVYWGQGTLVTVSA
VL: DIVMTQAAPSVAVTPGASVSISCRSSKSLLHSSGKTYLYWFLQRPGQSPQLLIYRLSSLASGVPDRFSGSGSGTAFTLRISRVEAEDVGVYYCMQHLEYPYTFGGGTKLEIKR
